Assays:
[1] = target: PYY_helicar (helicar motif engineered PYY); experiment: SEC-MALLS
[2] = target: PYY_helicar (helicar motif engineered PYY); experiment: column binding [Kd]; method not stated
[3] = target: T1, Ac-PYY(PEG3-Dig) (N-terminal acetyl; Lys 2 side chain carries PEG3-digoxigenin-3-carboxymethyl; Pqa at position 3; N-methyl-Arg at position 14; C-terminal amide); experiment: size exclusion chromatography and SEC-MALLS; binding through digoxigenin
T1 construct: also called DIG-PYY; Digoxigenin-PYY(3-36) conjugate
T1 peptide: IKXRHYLNWVTRQXY

Chain of PYY_helicar (helicar motif engineered PYY) (peptide, as listed by the source, change not shown): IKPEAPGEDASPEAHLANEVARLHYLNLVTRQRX

B1: anti-helicar motif amino acid sequence antibody (0019) (antibody, V domains shown)
V domain 1: QAVVTQEPSLTVSPGGTVTLTCGSSTGAVTTSNYASWVQQKPGQAFTGLIGGTNNRAPWTPARFSGSLLGGKAALTLSGAQPEDEAEYYCALWYSNHWVFGGGTKLTVL
V domain 2: DAVVTQESALTTSPGETVTLTCRSSTGAVTTSNYASWVQEKPDHLFTGLIGGTNNRAPGVPARFSGSLIGDKAALTITGAQTEDEAIYFCALWYSNHWVFGGGTKLTVL
stoichiometry of the complex (peptides on one bivalent antibody) (peptides per antibody) [1]: 1.6
Kd [2]: 12 nM

B2: murine anti-digoxigenin antibody (hybridoma-derived) (antibody, mouse IgG1, V domains shown)
VH: EVQLVESGGGLVKPGGSLKLSCAVSGFTFSDYAMSWIRQTPENRLEWVASINIGATYAYYPDSVKGRFTISRDNAKNTLFLQMSSLGSEDTAMYYCARPGSPYEYDKAYYSMAYWGPGTSVTVSS
VL: DVQMTQSTSSLSASLGDRVTISCRASQDIKNYLNWYQQKPGGTVKLLIYYSSTLLSGVPSRFSGRGSGTDFSLTITNLEREDIATYFCQQSITLPPTFGGGTKLEIK
binding result [3]: binds
